Data published in publication PMC5841405 (Nature Communications, 2018).

Experiments:
[1] = target: the molecule itself; experiment: SEC-MALS; Superose 6 10/300 GL, 20 mM Tris pH 7.5, 100 mM NaCl, 1 mM DTT
[2] = target: the molecule itself; experiment: ITC; titration of the protein into buffer (dilution); dimer to monomers; 20 mM HEPES pH 7.5, 100 mM NaCl, 0.25 mM TCEP

Row | Protein | stoichiometry N [1] | Kd [2] [µM]
1 | Hook1_(11–443) (domain or fragment, human, UniProt Q9UJC3-1 11-443, looked up, human Hook1, UniProt Q9UJC3-1, residues 11-443 (extends to the end of CC2); Dimeric by SEC-MALS; source: E. coli BL21 (DE3), purified (amylose column, TEV cleavage, gel filtration)) KLPLCDSLMIWLQTFNTASPCQDVKQLTSGVAMAQVLHQIDAAWFNESWLSRIKEDVGDNWRIKASNVKKVLQGIMSYYHEFLGQQISEALIPDLNQITECSDPVELGRLLQLILGCAINCEKKQEHIQNIMTLEESVQHVVMTAIQELMSKEILSSPPNDAVGELEQQLKRALEELQEALAEKEELRQRCEELDMQVTTLQDEKNSLVSENEMMNEKLDQLDGSFDDPNTVVAKKYFHAQLQLEQLQEENFRLEAAKDDYRVHCEELEKQLIEFQHRNDELTSLAEETRALKDEIDVLRATSDKANKLESTVEIYRQKLQDLNDLRKQVKTLQETNMMYMHNTVSLEEELKKANAARTQLETYKRQVQDLHVKLSSESKRADTLAFEMKRLEEKHEALLKEKERLIEQRDTLKETNEELRCSQVQQDHLNQT | 2 | 
2 | BICD2_(1–98) (domain or fragment, human, UniProt Q8TD16-1 1-98, looked up, human BICD2, UniProt Q8TD16-1, residues 1-98 (includes the CC1-Box); Purified 'as described above' (pMAL-c2x); source: E. coli BL21 (DE3), purified (amylose column, TEV cleavage, gel filtration)) MSAPSEEEEYARLVMEAQPEWLRAEVKRLSHELAETTREKIQAAEYGLAVLEEKHQLKLQFEELEVDYEAIRSEMEQLKEAFGQAHTNHKKVAADGES | 2 | 
3 | Spindly_(1–142) (domain or fragment, human, UniProt Q96EA4-1 1-142, looked up, human Spindly, UniProt Q96EA4-1, residues 1-142 (includes the CC1-Box); Cloned in pCold1; source: E. coli BL21 (DE3), purified (Ni-NTA, TEV cleavage, Superdex 75)) MEADIITNLRCRLKEAEEERLKAAQYGLQLVESQNELQNQLDKCRNEMMTMTESYEQEKYTLQREVELKSRMLESLSCECEAIKQQQKMHLEKLEEQLSRSHGQEVNELKTKIEKLKVELDEARLSEKQLKHQVDHQKELLS | 2 | 
4 | Hook1_(11–238) (domain or fragment, human, UniProt Q9UJC3-1 11-238, looked up, human Hook1, UniProt Q9UJC3-1, residues 11-238 (Hook domain and CC1 region); In equilibrium between dimers and monomers; source: E. coli BL21 (DE3), purified (amylose column, TEV cleavage, gel filtration)) KLPLCDSLMIWLQTFNTASPCQDVKQLTSGVAMAQVLHQIDAAWFNESWLSRIKEDVGDNWRIKASNVKKVLQGIMSYYHEFLGQQISEALIPDLNQITECSDPVELGRLLQLILGCAINCEKKQEHIQNIMTLEESVQHVVMTAIQELMSKEILSSPPNDAVGELEQQLKRALEELQEALAEKEELRQRCEELDMQVTTLQDEKNSLVSENEMMNEKLDQLDGSFDD |  | 2.1
